The text below walks through data of paper doi:10.1101/2020.02.18.953711 (bioRxiv, 2020).

The assay concerns the target T1, CEPR2^KD-His (Arabidopsis thaliana, UniProt Q9C7T7 642-977).
T1 sequence (looked up): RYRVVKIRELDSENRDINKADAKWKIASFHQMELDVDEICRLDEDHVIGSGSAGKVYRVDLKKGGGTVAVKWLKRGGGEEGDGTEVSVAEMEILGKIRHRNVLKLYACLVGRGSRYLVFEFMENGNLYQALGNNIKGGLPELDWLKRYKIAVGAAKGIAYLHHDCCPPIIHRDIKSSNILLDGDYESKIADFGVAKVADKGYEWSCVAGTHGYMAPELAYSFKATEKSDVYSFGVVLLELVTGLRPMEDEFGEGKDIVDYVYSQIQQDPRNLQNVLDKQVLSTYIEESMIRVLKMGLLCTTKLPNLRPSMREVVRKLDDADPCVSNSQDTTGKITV
Nature of the assay: pull-down.

B1: NRT1.2^loop-GST (domain or fragment, Arabidopsis thaliana, UniProt Q8H157 232-346, looked up)
chain: SGSRFYRNKIPCGSPLTTILKVLLAASVKCCSSGSSSNAVASMSVSPSNHCVSKGKKEVESQGELEKPRQEEALPPRAQLTNSLKVLNGAADEKPVHRLLECTVQQVEDVKIVLK
As to B1, the binding result was “binds”.
